The target of this test is human EGFR (wild type) on cells (human, UniProt P00533 25-1210). The test is described as follows: cell-based or functional assay.

B1: EGFR-TriNKET (bispecific antibody, human IgG1, kappa)
chain: DIQMTQSPSSLSASVGDRVTITCQASQDISNYLNWYQQKPGKAPKLLIYDASNLETGVPSRFSGSGSGTDFTFTISSLQPEDIATYYCQHFRHLPLAFGCGTKVEIKGGGGSGGGGSGGGGSGGGGSQVQLQESGPGLVKPSETLSLTCTVSGGSVSSGDYYWTWIRQSPGKCLEWIGHIYYSGNTNYNPRLKSRLTISIDTSKTQFSLKLSSVTAADTAIYYCVRDRVTGAFDIWGQGTMVTVSSGSDKTHTCPPCPAPELLGGPSVFLFPPKPKDTLMISRTPEVTCVVVDVSHEDPEVKFNWYVDGVEVHNAKTKPREEQYNSTYRVVSVLTVLHQDWLNGKEYKCKVSNKALPAPIEKTISKAKGQPREPRVYTLPPCRDELTKNQVSLTCLVKGFYPSDIAVEWESNGQPENNYKTTPPVLVSDGSFTLYSKLTVDKSRWQQGNVFSCSVMHEALHNHYTQKSLSLSPG
heavy: EVQLVESGGGLVKPGGSLRLSCAASGFTFSSYSMNWVRQAPGKGLEWVSSISSSSSYIYYADSVKGRFTISRDNAKNSLYLQMNSLRAEDTAVYYCARGAPIGAAAGWFDPWGQGTLVTVSSASTKGPSVFPLAPSSKSTSGGTAALGCLVKDYFPEPVTVSWNSGALTSGVHTFPAVLQSSGLYSLSSVVTVPSSSLGTQTYICNVNHKPSNTKVDKKVEPKSCDKTHTCPPCPAPELLGGPSVFLFPPKPKDTLMISRTPEVTCVVVDVSHEDPEVKFNWYVDGVEVHNAKTKPREEQYNSTYRVVSVLTVLHQDWLNGKEYKCKVSNKALPAPIEKTISKAKGQPREPQVCTLPPSRDELTENQVSLTCLVKGFYPSDIAVEWESNGQPENNYKTTPPVLDSDGSFFLYSWLTVDKSRWQQGNVFSCSVMHEALHNHYTQKSLSLSPG
light: DIQMTQSPSSVSASVGDRVTITCRASQGISSWLAWYQQKPGKAPKLLIYAASSLQSGVPSRFSGSGSGTDFTLTISSLQPEDFATYYCQQGVSFPRTFGGGTKVEIKRTVAAPSVFIFPPSDEQLKSGTASVVCLLNNFYPREAKVQWKVDNALQSGNSQESVTEQDSKDSTYSLSSTLTLSKADYEKHKVYACEVTHQGLSSPVTKSFNRGEC
notes: also called EGFR-TriNKET-3
Turning to B1, the “EC50, short-term NK cell-mediated cytotoxicity (DELFIA), 786-O” value was found to be 48 pM; the “EC50, short-term NK cell-mediated cytotoxicity (DELFIA), BT474” value is 290 pM; the “EC50, short-term NK cell-mediated cytotoxicity (DELFIA), Detroit 562” value was determined as 58 pM; the “EC50, short-term NK cell-mediated cytotoxicity (DELFIA), FaDu” value is 11 pM. Further, the “EC50, short-term NK cell-mediated cytotoxicity (DELFIA), HCT116” value was 54 pM; the “EC50, short-term NK cell-mediated cytotoxicity (DELFIA), HT29” value is 19 pM; the “EC50, short-term NK cell-mediated cytotoxicity (DELFIA), KYSE-30” value came out at 5.3 pM; the “EC50, short-term NK cell-mediated cytotoxicity (DELFIA), NCI-H292” value was determined as 8.8 pM. The “EC50, short-term NK cell-mediated cytotoxicity (DELFIA), NCI-H1703” value is 22 pM and the “EC50, short-term NK cell-mediated cytotoxicity (DELFIA), NCI-H2172” value is 79 pM.

For the origin of these results see patent US20230250176A1 (DRAGONFLY THERAPEUTICS, published 2023).
